According to patent US20110008376A1:

Tests used:
[1] = molecular target: cdH5-0 (dH5-0 supernatant after 10 min at 16,000-18,000*g) (influenza A virus H5N1 strain A/Vietnam/1203/04); experiment: ELISA, immobilized H5 form, normalized to cdH5-0
[2] = molecular target: dH5-II (misfolded H5, heat cycling at pH 2) (influenza A virus H5N1 strain A/Vietnam/1203/04); experiment: ELISA, immobilized H5 form, normalized to cdH5-0
[3] = molecular target: dH5-III (misfolded H5, about 16 h at 47.5 C) (influenza A virus H5N1 strain A/Vietnam/1203/04); experiment: ELISA, immobilized H5 form, normalized to cdH5-0
[4] = molecular target: fdH5-0 (ultrafiltrated dH5-0, flow-through of a 1,000 kDa cut-off filter) (influenza A virus H5N1 strain A/Vietnam/1203/04); experiment: ELISA, immobilized H5 form, normalized to cdH5-0
[5] = molecular target: dH5-I (misfolded H5, heat cycling at pH 7) (influenza A virus H5N1 strain A/Vietnam/1203/04); experiment: ELISA, immobilized H5 form, normalized to cdH5-0
[6] = molecular target: dH5-0 (hemagglutinin 5 of H5N1 strain A/Vietnam/1203/04 as supplied by Protein Sciences) (influenza A virus H5N1 strain A/Vietnam/1203/04); experiment: ELISA, immobilized H5 form, normalized to cdH5-0; average of two measurements
[7] = molecular target: nOVA (untreated ovalbumin, 1 mg/ml in PBS) (chicken) (UniProt P01012); experiment: ELISA, immobilized OVA form, normalized to nOVA
[8] = molecular target: cdH5-0 (dH5-0 supernatant after 10 min at 16,000-18,000*g) (influenza A virus H5N1 strain A/Vietnam/1203/04); experiment: ELISA, immobilized H5 form, excess epsilon-amino caproic acid
[9] = molecular target: dH5-0 (hemagglutinin 5 of H5N1 strain A/Vietnam/1203/04 as supplied by Protein Sciences) (influenza A virus H5N1 strain A/Vietnam/1203/04); experiment: as above
[10] = molecular target: dH5-II (misfolded H5, heat cycling at pH 2) (influenza A virus H5N1 strain A/Vietnam/1203/04); experiment: as above
[11] = molecular target: fdH5-0 (ultrafiltrated dH5-0, flow-through of a 1,000 kDa cut-off filter) (influenza A virus H5N1 strain A/Vietnam/1203/04); experiment: as above

Chain of UniProt P01012 (P01012 2-386 limits assumed): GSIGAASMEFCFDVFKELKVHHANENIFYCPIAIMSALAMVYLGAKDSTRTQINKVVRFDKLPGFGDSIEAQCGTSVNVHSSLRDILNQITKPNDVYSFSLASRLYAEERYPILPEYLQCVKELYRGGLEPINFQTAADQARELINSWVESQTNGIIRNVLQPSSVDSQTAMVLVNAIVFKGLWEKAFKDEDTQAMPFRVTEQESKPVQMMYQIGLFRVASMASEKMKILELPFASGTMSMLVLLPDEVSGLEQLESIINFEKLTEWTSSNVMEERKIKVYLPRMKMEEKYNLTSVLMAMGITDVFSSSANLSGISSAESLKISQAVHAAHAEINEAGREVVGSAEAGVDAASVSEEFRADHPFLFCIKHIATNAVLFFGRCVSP

Substance	Normalized affinity, kD (%) [1] [%]	Normalized affinity, kD (%) [2] [%]	Normalized affinity, kD (%) [3] [%]	Normalized affinity, kD (%) [4] [%]	Normalized affinity, kD (%) [5] [%]	Normalized affinity, kD (%) [6] [%]	Normalized affinity, kD (%) [7] [%]	Bmax [8]	Kd [8] [µM]	Bmax [9]	Kd [9] [µM]	Bmax [10]	Kd [10] [µM]	Bmax [11]	Kd [11] [µM]
fourth and fifth finger domain of fibronectin (Fn F4-5) (from UniProt P02751 183-274)	100	88	6	69	0	103	100	–	–	–	–	–	–	–	–
tissue type plasminogen activator (tPA) (from UniProt P00750 36-562) (enzyme)	–	–	–	–	–	–	–	0.36	0.102	0.32	0.096	0.07	0.019	0.37	0.342
